In paper PMC5397160, “Insights into the RecQ helicase mechanism revealed by the structure of the helicase domain of human RECQL5”:

What was measured:
[1] = target: RECQL5 11-438 (human, UniProt O94762 11-438); assay: fluorescence polarization; shared Bmax fit; FP: 10 mM HEPES pH 7.5, 150 mM NaCl, 25 C, 10 nM FITC probe; no nucleotide or Mg stated; details: protein: recombinant; tags: none (His tag cleaved with TEV); label: 5' fluorescein (FITC) on RQ-1; fork 1:2, 31 bp, RQ-1 5' arm 32 nt, RQ-3 3' arm 30 nt
[2] = target: RECQL5 11-526 R349A (human, UniProt O94762 11-526, R349A); assay: fluorescence polarization; value marked * in table; FP: 10 mM HEPES pH 7.5, 150 mM NaCl, 25 C, 10 nM FITC probe; no nucleotide or Mg stated; details: protein: recombinant; tags: none (His tag cleaved with TEV); label: 5' fluorescein (FITC) on RQ-1; fork 1:2, 31 bp, RQ-1 5' arm 32 nt, RQ-3 3' arm 30 nt
[3] = target: RECQL5 11-526 Q345A (human, UniProt O94762 11-526, Q345A); assay: fluorescence polarization; FP: 10 mM HEPES pH 7.5, 150 mM NaCl, 25 C, 10 nM FITC probe; no nucleotide or Mg stated; details: protein: recombinant; tags: none (His tag cleaved with TEV); label: 5' fluorescein (FITC) on RQ-1; fork 1:2, 31 bp, RQ-1 5' arm 32 nt, RQ-3 3' arm 30 nt
[4] = target: RECQL5 11-609 (human, UniProt O94762 11-609); assay: as above; details: protein: recombinant, tags: none (His tag cleaved with TEV)
[5] = target: RECQL5 11-526 W165A (human, UniProt O94762 11-526, W165A); assay: as above; details: protein: recombinant; tags: none (His tag cleaved with TEV); label: 5' fluorescein (FITC) on RQ-1; fork 1:2, 31 bp, RQ-1 5' arm 32 nt, RQ-3 3' arm 30 nt
[6] = target: RECQL5 11-453 (human, UniProt O94762 11-453); assay: as above; details: protein: recombinant; tags: none (His tag cleaved with TEV); label: 5' fluorescein (FITC) on RQ-1; fork 1:2, 31 bp, RQ-1 5' arm 32 nt, RQ-3 3' arm 30 nt
[7] = target: RECQL5 11-526 F420A (human, UniProt O94762 11-526, F420A); assay: as above; details: protein: recombinant; tags: none (His tag cleaved with TEV); label: 5' fluorescein (FITC) on RQ-1; fork 1:2, 31 bp, RQ-1 5' arm 32 nt, RQ-3 3' arm 30 nt
[8] = target: RECQL5 11-526 (human, UniProt O94762 11-526); assay: as above; details: protein: recombinant; tags: none (His tag cleaved with TEV); label: 5' fluorescein (FITC) on RQ-1; fork 1:2, 31 bp, RQ-1 5' arm 32 nt, RQ-3 3' arm 30 nt
[9] = target: RECQL5 11-526 D422A (human, UniProt O94762 11-526, D422A); assay: as above; details: protein: recombinant; tags: none (His tag cleaved with TEV); label: 5' fluorescein (FITC) on RQ-1; fork 1:2, 31 bp, RQ-1 5' arm 32 nt, RQ-3 3' arm 30 nt
[10] = target: RECQL5 11-526 Y419A (human, UniProt O94762 11-526, Y419A); assay: as above; details: protein: recombinant; tags: none (His tag cleaved with TEV); label: 5' fluorescein (FITC) on RQ-1; fork 1:2, 31 bp, RQ-1 5' arm 32 nt, RQ-3 3' arm 30 nt
[11] = target: RECQL5 11-526 H167A (human, UniProt O94762 11-526, H167A); assay: as above; details: protein: recombinant; tags: none (His tag cleaved with TEV); label: 5' fluorescein (FITC) on RQ-1; fork 1:2, 31 bp, RQ-1 5' arm 32 nt, RQ-3 3' arm 30 nt
[12] = target: RECQL5 11-526 D168A (human, UniProt O94762 11-526, D168A); assay: as above; details: protein: recombinant; tags: none (His tag cleaved with TEV); label: 5' fluorescein (FITC) on RQ-1; fork 1:2, 31 bp, RQ-1 5' arm 32 nt, RQ-3 3' arm 30 nt
[13] = target: RECQL5 11-526 R352G (human, UniProt O94762 11-526, R352G); assay: as above; details: protein: recombinant; tags: none (His tag cleaved with TEV); label: 5' fluorescein (FITC) on RQ-1; fork 1:2, 31 bp, RQ-1 5' arm 32 nt, RQ-3 3' arm 30 nt
RECQL5 11-526 R352G, sequence (O94762 11-526 R352G): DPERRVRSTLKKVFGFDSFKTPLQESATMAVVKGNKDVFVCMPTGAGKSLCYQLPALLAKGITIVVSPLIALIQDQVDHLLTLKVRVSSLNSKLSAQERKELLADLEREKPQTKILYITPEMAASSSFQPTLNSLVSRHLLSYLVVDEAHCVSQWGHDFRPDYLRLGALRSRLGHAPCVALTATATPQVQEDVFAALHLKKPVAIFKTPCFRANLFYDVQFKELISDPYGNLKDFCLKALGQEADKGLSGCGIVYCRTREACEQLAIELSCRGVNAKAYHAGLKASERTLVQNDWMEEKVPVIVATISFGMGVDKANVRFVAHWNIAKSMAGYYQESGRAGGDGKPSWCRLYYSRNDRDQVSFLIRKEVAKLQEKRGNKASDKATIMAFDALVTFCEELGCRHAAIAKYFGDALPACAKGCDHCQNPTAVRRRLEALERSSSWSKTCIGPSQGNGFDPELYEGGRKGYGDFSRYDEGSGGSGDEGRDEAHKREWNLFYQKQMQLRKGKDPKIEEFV

RECQL5 11-609, sequence (O94762 11-609): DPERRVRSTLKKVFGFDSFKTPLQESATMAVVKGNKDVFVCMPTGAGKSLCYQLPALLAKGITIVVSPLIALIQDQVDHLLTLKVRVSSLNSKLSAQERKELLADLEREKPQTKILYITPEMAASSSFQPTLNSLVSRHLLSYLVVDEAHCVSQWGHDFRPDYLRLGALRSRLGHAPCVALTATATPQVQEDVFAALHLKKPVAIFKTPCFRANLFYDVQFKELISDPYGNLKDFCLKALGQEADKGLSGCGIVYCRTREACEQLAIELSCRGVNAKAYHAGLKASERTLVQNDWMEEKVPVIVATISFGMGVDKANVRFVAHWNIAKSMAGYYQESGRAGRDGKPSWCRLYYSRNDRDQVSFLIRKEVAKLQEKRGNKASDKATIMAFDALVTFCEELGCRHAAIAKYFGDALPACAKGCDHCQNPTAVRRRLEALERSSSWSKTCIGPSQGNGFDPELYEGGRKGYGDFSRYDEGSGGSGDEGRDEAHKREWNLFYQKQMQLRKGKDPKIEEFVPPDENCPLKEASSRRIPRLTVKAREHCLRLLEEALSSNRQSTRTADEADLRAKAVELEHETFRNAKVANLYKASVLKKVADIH
RECQL5 11-526, sequence (O94762 11-526): as the sequence (O94762 11-526 R352G) above, with G342R counted along it
RECQL5 11-526 W165A, sequence (O94762 11-526 W165A): as the sequence (O94762 11-526 R352G) above, with W155A, G342R counted along it
RECQL5 11-526 D422A, sequence (O94762 11-526 D422A): as the sequence (O94762 11-526 R352G) above, with G342R, D412A counted along it
RECQL5 11-453, sequence (O94762 11-453): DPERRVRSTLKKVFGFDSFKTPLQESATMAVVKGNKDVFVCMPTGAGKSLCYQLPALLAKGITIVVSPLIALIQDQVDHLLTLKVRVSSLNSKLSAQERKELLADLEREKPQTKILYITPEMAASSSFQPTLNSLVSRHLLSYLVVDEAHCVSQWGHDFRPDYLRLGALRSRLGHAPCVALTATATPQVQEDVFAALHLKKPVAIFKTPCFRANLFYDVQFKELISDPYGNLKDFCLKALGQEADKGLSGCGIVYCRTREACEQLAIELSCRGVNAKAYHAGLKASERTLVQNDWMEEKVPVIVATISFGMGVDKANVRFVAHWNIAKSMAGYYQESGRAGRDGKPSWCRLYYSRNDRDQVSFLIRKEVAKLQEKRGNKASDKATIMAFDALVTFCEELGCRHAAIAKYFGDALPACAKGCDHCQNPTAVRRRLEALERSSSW
RECQL5 11-526 R349A, sequence (O94762 11-526 R349A): as the sequence (O94762 11-526 R352G) above, with R339A, G342R counted along it
RECQL5 11-526 D168A, sequence (O94762 11-526 D168A): as the sequence (O94762 11-526 R352G) above, with D158A, G342R counted along it
RECQL5 11-438, sequence (O94762 11-438): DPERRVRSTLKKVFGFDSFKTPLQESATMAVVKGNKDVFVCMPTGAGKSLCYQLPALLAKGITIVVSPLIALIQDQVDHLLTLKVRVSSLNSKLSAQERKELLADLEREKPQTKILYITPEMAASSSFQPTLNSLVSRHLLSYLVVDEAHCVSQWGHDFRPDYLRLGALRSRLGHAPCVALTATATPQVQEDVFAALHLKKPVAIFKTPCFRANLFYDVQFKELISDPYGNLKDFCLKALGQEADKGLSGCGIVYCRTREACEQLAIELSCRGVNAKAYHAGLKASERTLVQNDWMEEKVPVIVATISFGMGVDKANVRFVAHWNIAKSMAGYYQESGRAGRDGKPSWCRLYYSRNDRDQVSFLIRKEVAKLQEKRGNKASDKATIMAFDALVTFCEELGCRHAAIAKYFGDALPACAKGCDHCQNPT
RECQL5 11-526 H167A, sequence (O94762 11-526 H167A): as the sequence (O94762 11-526 R352G) above, with H157A, G342R counted along it
RECQL5 11-526 Q345A, sequence (O94762 11-526 Q345A): as the sequence (O94762 11-526 R352G) above, with Q335A, G342R counted along it
RECQL5 11-526 F420A, sequence (O94762 11-526 F420A): as the sequence (O94762 11-526 R352G) above, with G342R, F410A counted along it
RECQL5 11-526 Y419A, sequence (O94762 11-526 Y419A): as the sequence (O94762 11-526 R352G) above, with G342R, Y409A counted along it

B1: splayed duplex (RQ-1 + RQ-3) (mixed)
DNA 1: ATCGATAGTCGGATCCTCTAGACAGCTCCATGTAGCAAGGCACTGGTAGAATTCGGCAGCGTC
DNA 2: GACGCTGCCGAATTCTACCAGTGCCTTGCTAGGACATCTTTGCCCACCTGCAGGTTCACCC
Which results are given for B1?
Kd [1]: 164 ± 34 nM; Kd [2]: 295 ± 29 nM; Kd [3]: 85 ± 4 nM; Kd ([4]; label: 5' fluorescein (FITC) on RQ-1, fork 1:2, 31 bp, RQ-1 5' arm 32 nt, RQ-3 3' arm 30 nt): 29 ± 4 nM; Kd [5]: 169 ± 6 nM; Kd [6]: 49 ± 28 nM; Kd [7]: 45 ± 3 nM; Kd [8]: 51 ± 5 nM; Kd [9]: 38 ± 4 nM; Kd [10]: 39 ± 10 nM; Kd [11]: 108 ± 5 nM; Kd [12]: 25 ± 2 nM; Kd [13]: 29 ± 2 nM

B2: double stranded (RQ-1 + RQ-2) (dsDNA)
DNA 1: B1 DNA 1
DNA 2: GACGCTGCCGAATTCTACCAGTGCCTTGCTACATGGAGCTGTCTAGAGGATCCGACTATCGAT
Does B2 bind ([4]; label: 5' fluorescein (FITC) on RQ-1, blunt)?
Result: binds

B3: single stranded (RQ-1) (ssDNA)
DNA: B1 DNA 1
Does B3 bind ([4]; label: 5' fluorescein (FITC), single strand)?
Result: binds
